We go through two proteins from article PMC7375649, “Varicella zoster virus encodes a viral decoy RHIM to inhibit cell death” (PLoS Pathogens, 2020).

This data set deals with the molecule itself. The experiment in a line: single molecule fluorescence confocal spectroscopy (two-colour coincidence); proteins alone or one mCherry-tagged and one YPet-tagged protein mixed, diluted out of 8 M urea to 0.35-0.7 uM in 25 mM NaH2PO4, 150 mM NaCl, 0.5 mM DTT, pH 7.4; room temperature; 488 and 561 nm lasers.

B1: YPet-RIPK3_(387-518) (domain or fragment)
chain: TSSDSMAQPPQTPETSTFRNQMPSPTSTGTPSPGPRGNQGAERQGMNWSCRTPEPNPVTGRPLVNIYNCSGVQVGDNNYLTMQQTTALPTWGLAPSGKGRGLQHPPPVGSQEGPKDPEAWSRPQGWYNHSGK
notes: human RIPK3, RHIM-containing region, residues 387-518; source: E. coli BL21(DE3) pLysS, purified from inclusion bodies under denaturing conditions (Ni-NTA)
B1: the binding result is listed as “binds”.

B2: YPet-ZBP1_(170-355) (domain or fragment)
chain: SGRRAKSASIIYQHNPINMICQNGPNSWISIANSEAIQIGHGNIITRQTVSREDGSAGPRHLPSMAPGDSSTWGTLVDPWGPQDIHMEQSILRRVQLGHSNEMRLHGVPSEGPAHIPPGSPPVSATAAGPEASFEARIPSPGTHPEGEAAQRIHMKSCFLEDATIGNSNKMSISPGVAGPGGVAGS
notes: human ZBP1, RHIM-containing region, residues 170-355; also called YPet-ZBP1 RHIM; source: E. coli BL21(DE3) pLysS, purified from inclusion bodies under denaturing conditions (Ni-NTA)
As for B2, the binding result is “binds”.
